Laboratory results reported in PMC5882647, “Simultaneous Monitoring of Cell-surface Receptor and Tumor-targeted Photodynamic Therapy via TdT-initiated Poly-G-Quadruplexes”.

B1: Lib-primer (LP) (ssDNA)
DNA: ATTTAGAGTGACGCAGCAGGACACGGTGGCTTAGTTTTTCAAGGCTTAGTTTTTTTTTTTTTTTTTTAATACAACCTCTCA
B2: aptamer-primer (AP; SL1 aptamer + poly-T linker + primer) (ssDNA)
DNA: ATCAGGCTGGATGGTAGCTCGGTCGGGGTGGGTGGGTTGGCAAGTCTGATTTTTTTTTTTTTTTTTTAATACAACCTCTCA

Biological target: c-Met-Fc fusion protein (UniProt P08581 25-932)
Sequence (P08581 25-932): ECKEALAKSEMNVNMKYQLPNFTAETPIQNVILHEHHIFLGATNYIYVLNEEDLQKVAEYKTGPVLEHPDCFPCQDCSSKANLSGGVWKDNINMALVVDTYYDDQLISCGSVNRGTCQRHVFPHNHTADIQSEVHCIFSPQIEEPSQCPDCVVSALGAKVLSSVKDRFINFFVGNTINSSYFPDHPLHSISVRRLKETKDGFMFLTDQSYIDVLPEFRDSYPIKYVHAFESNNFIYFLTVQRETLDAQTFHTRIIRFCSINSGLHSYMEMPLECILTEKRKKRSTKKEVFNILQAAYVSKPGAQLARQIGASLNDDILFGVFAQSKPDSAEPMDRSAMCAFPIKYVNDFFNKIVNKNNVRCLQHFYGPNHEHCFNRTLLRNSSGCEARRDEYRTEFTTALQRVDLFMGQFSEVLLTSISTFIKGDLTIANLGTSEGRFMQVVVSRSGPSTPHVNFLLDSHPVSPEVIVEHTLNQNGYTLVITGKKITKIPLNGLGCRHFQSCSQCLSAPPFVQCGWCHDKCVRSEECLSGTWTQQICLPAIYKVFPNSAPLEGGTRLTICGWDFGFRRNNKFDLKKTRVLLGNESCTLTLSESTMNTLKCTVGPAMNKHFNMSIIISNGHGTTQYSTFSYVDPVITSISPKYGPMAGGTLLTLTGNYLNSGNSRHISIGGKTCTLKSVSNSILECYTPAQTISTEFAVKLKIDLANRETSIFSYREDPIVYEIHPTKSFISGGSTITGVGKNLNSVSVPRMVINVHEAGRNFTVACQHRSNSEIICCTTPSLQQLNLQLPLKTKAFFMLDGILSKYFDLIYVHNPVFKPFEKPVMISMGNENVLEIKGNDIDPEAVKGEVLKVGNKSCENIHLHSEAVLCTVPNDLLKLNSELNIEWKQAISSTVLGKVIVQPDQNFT
Assay: EMSA; EMSA: DNA (printed 200 nmol) with c-Met-Fc or BSA (printed 200 nmol) in 10 uL DPBS, 30 min, 37 C; native 4-20% TBE gel, SYBR Green II; pH not stated
Settings: protein: recombinant; tags: Fc; chain copies: 2

| Binder | binding result |
| --- | --- |
| B1 | no binding |
| B2 | binds |
